# T1: human MSLN-R1-his protein (human, UniProt Q13421 296-390)
# T1 construct: Region 1 of human MSLN, His-tagged; also called human MSLN-R1 protein; hMSLN-R1-his; not shown: His tag
# T1 chain: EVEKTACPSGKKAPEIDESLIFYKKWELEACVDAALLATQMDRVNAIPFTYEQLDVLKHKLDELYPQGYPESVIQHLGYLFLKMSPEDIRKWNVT
# B1: S009-F2.17.3 (antibody, human IgG1, kappa, V domains shown)
# VH: QVQLQQPGTELVTPGASVKLSCKASGYSFTSYWMHWVKQRPGQGLEWIGNINPSNGDTFYNEKFKNKATLTVDKSSSTAYMQLSSLTSEDSAVYYCARGWLRDYWGQGTTLTVSS
# VL: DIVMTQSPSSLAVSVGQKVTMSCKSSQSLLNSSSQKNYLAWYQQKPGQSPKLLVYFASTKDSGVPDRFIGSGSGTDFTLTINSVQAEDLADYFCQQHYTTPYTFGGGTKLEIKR
# notes: Human-murine chimeric antibody, human IgG1/kappa constant regions
# B2: S009-F2.13.3 (antibody, human IgG1, kappa, V domains shown)
# VH: QVQLQQSGAELMKPGASVKLSCKATGYTFTGYWIEWVKQRPGHGLEWIGEILPGSGSTNYNEKFKGKATFTADTSSNTAYMQLSSLTTEDSAIYYCARAGAWFAYWGQGTLVTVSA
# VL: QIVLTQSPAIMSASLGERVTMTCTASSSVSSSYLHWYQQKPGSSPKLWTYSTSNLASGVPARFSGSGSGTSYSLTISSMEAEDAATYYCHQYHRSPWTFGGGTKLEIKR
# notes: as for B1
# B3: S009-F2.16.10 (antibody, human IgG1, kappa, V domains shown)
# VH: QVQLQQPGAELIKPGASVKLSCKASGYTFTSYWMHWVKQRPGQGLEWIGIIHPNIGSTNYNERFKSKATLTVDKSSSTAYMQLSSLTSEDSAVYYCARRSSNYGDWYFDVWGTGTTVTVSS
# VL: DIVMTQSHRFMSTSVGDRVSITCKASQDVGTSVAWYQQKPGQSPKLLIYWASTQHTGVPDRFTGSGSGTDFTLTINNVQSEDLLDYFCQQYSSYPLTFGAGTKLELKR
# notes: as for B1
# B4: S009-F2-56.12 (antibody, human IgG1, kappa, V domains shown)
# VH: DVQLQESGPGMVKPSQSLSLTCTVTGYSITSGYDWHWIRHFPGNKLEWMGYISYSGSTNYNPSLKSRISITHDTSKNHFFLKLKSVTTEDTATYYCARGTGPDYWGQGTTLTVSS
# VL: DIVMTQSQKFMSTSVGDRVSITCKASQNVRTAVAWYQQKPGQSPKALIHLPSNRHTGVPDRFTGSGSGTDFTLTISNVQSEDLADYFCLQHWNYPLTFGGGTKLEIKR
# notes: as for B1
# B5: S009-F1.25.10 (antibody, human IgG1, kappa, V domains shown)
# VH: EVQLQQSGPELVKPGASLKISCKASGYSFTDYTMNWVKQSHGKNLEWIGLFNPYNGGISYNQKFKGKATLTVDKSSNTAYMELLSLTSDDSAVYFCARDGRGGFYAMDYWGQGTSVTVSS
# VL: DIQMTQTTSSLSASLGDRVTISCRASQDISIYLNWYQQKPDGPVKLLIYYTSRLHSGVPSRFSGSGSGTDFSLTISNLEQEDIATYFCQQGYTLPPWTFGGGTKLEIKR
# notes: human-murine chimeric antibody, human IgG1/kappa constant regions
# B6: S009-F1.62.9 (antibody, human IgG1, kappa, V domains shown)
# VH: EVQLQQSGADLVKPGASVKLSCTVFGLNFKDTFMHWVRQRPEQGLEWIGRIDPANDNSIYGPKFQDKATITADTSSNTAYLHLSSLTSEDTAVYYCLYFDNWGHGTTLTVSS
# VL: DIVMTQAASSEPVTPGESVSISCRSDKSLLHSNGHNYLYWFLQRPGQSPHLLIYRMSNLASGVPDRFSGSGSGTAFTLRISRVEAEDVGVYYCMQHLEYPLTFGAGTKLELKR
# notes: as for B5
# B7: S009-F2.21.4 (antibody, human IgG1, kappa, V domains shown)
# VH: EVQLQQSGPELVKPGASVKIPCKASGYTFTDYNMDWVKQSHGKSLEWIGDINPNNGGSIYNQRFKGKATLTVDKSSSTAYMELRSLTSEDSAVYYCARRAYYSTGYFDVWGTGTTVTVSS
# VL: QIVLTQSPALMSASPGEKVTITCSASSSISYMHWFQQKPGTSPKLWIYSTSTLASGVPARFSGSGSGTSYSLTISRMEAEDTATYYCQQRSSYPPTFGGGTKLEIKR
# notes: as for B5
# B8: S009-F1.7.14 (antibody, human IgG1, kappa)
# heavy: not shown
# light: QIVLTQSPAIMSASPGEKVTISCSASSSVSYMYWYQQKPGSSPKPWISRTSNLASGVPARFSGSGSGTSYSLTISSMEAEDAATYYCQQYHSYPPTLGAGTKLELKRTVAAPSVFIFPPSDEQLKSGTASVVCLLNNFYPREAKVQWKVDNALQSGNSQESVTEQDSKDSTYSLSSTLTLSKADYEKHKVYACEVTHQGLSSPVTKSFNRGEC
# notes: as for B5
# B9: S009-F2.38.12 (antibody, human IgG1, kappa, V domains shown)
# VH: QVQLQQPGTELVKPGASVKLSCKASGYTFTSYWMHWVKQRPGQGLEWIGNINPSNGGTNYNEKIKNKATLTVDKSSSTAYMQLSSLTSEDSAVYYCARWNYYGNYPFDYWGQGTTLTVSS
# VL: DIVMTQSQKFMSTTVGDRVSITCKASQNVGTAVAWYQQKPGQSPKLLIYSASNRYTGVPDRFTGSGSGTDFTLTISNMQSEDLADYFCQQYSSYPLTFGAGTKLELKR
# notes: as for B5
# B10: S009-F1.59.1 (antibody, human IgG1, kappa, V domains shown)
# VH: EVKLEGSGGGLVQPGGSMMLSCVATGFTFSSYWMNWVRQSPDRGLEWVAEIRLKSNGFAAFYAESVKGRFTISRDDSKSSVYLQMNNLRTEDTGIYYCTYFVHWGQGILVTVSE
# VL: DIVLTQSPTSLAVSLGQRATISCRTSESVEYFGTILIQWYQQKPGQPPKLLIFGASNVESGVPARFSGSGSGTDFSLNIHPVEEEDIAMYFCQQNRKVPYTFGGGTTLELKR
# notes: as for B5
# Biological target: T2, human MSLN-FL-his protein (human, UniProt Q13421 296-580)
# T2 construct: also called human MSLN full-length protein; hMSLN-FL-his; not shown: His tag
# Assay: ELISA, coated MSLN full-length;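 further: binding of chimeric antibodies to plate-bound antigen, read by TMB colour after acid stop, antibody incubated 2 h at 37 °C, negative control antibody run alongside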
# Experimental: (§1) The plate was sealed with a plastic film and incubated at 4° C. overnight. The next day, the plate was washed twice with PBST, and a blocking buffer [PBS+2% (w/w) BSA] was added for blocking at room temperature for 2 h. The blocking buffer was discarded, and a chimeric antibody or negative control antibody serially diluted from 100 nM was added at 50 μL/well. After incubation at 37° C. for 2 h, the plate was washed 3 times with PBST. […] After incubation at 37° C. for 2 h, the plate was washed 5 times with PBST. A TMB substrate was added at 50 μL/well for incubation at room temperature for 5-10 min, and then a stop solution (1.0 N HCl) was added at 50 μL/well.
Binder,OD450 at 0.0001 nM [OD450],OD450 at 0.001 nM [OD450],OD450 at 0.01 nM [OD450],OD450 at 0.1 nM [OD450],OD450 at 1 nM [OD450],OD450 at 10 nM [OD450],OD450 at 100 nM [OD450],OD450 at none (no antibody) [OD450]
B1,0.05,0.06,0.13,0.64,1.93,2.48,2.81,0.06
B2,0.06,0.08,0.26,1.3,2.08,2.37,2.77,0.06
B3,0.05,0.09,0.41,1.71,2.22,2.4,2.92,0.06
B4,0.06,0.07,0.16,0.37,0.41,0.37,0.4,0.07

# Biological target: T3, human MSLN-FL-his protein (human, UniProt Q13421 296-580)
# T3 construct: made in HEK293E cells, purified on nickel column; also called hMSLN-FL-his; human MSLN full-length protein; not shown: His tag
# Assay: SPR (Biacore), antibody captured on Protein A chip;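 further: measured at 25 °C, analyte injected 240 s in five twofold dilutions from 200 nM, dissociation up to 600 s, double-referenced, fitted with Langmuir 1:1 model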
# T3 sequence (Q13421 other isoform, or with tags, fused parts or gaps): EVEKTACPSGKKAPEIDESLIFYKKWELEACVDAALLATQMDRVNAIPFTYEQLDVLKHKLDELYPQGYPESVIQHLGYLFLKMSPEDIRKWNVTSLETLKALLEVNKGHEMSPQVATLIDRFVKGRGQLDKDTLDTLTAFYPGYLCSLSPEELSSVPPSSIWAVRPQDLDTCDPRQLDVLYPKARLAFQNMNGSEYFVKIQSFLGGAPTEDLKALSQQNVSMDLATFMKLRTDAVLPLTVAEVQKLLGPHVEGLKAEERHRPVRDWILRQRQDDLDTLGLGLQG
Binder,Kd [µM],koff [s⁻¹],kon [M⁻¹ s⁻¹]
B5,0.186,0.00067,3600
B6,0.745,0.000348,467
B7,0.0291,0.0227,780000
B8,0.0128,0.00709,553000
B9,0.0308,0.0109,354000
B10,0.563,0.000922,1640

# Biological target: T1, human MSLN-R1-his protein
# Assay: ELISA, coated MSLN-R1;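 further: serially diluted chimeric antibodies bound to the coated, BSA-blocked plate for 2 h at 37 °C, with TMB colour read after acid stop and a negative control antibody alongside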
# Experimental: as §1
Binder,OD450 at 0.0001 nM [OD450],OD450 at 0.001 nM [OD450],OD450 at 0.01 nM [OD450],OD450 at 0.1 nM [OD450],OD450 at 1 nM [OD450],OD450 at 10 nM [OD450],OD450 at 100 nM [OD450],OD450 at none (no antibody) [OD450]
B1,0.05,0.05,0.04,0.05,0.04,0.06,0.07,0.06
B2,0.05,0.05,0.05,0.05,0.05,0.05,0.06,0.06
B3,0.05,0.06,0.09,0.44,0.94,1.62,2.03,0.06

# Source: patent publication US20250250357A1 (NANJING ZAIMING PHARMACEUTICAL, published 2025)
